In US20250339569A1 (3B PHARMACEUTICALS, published 2025):
Starred links: 1 amine or outer side, 2 acyl side, 3 side chain; linkers in the order of their positions; H or OH if unused. Positions of bridges follow the written chain, without caps; N, C: chain ends. Non-standard residues stand in square brackets, D forms with d. Groups on a side chain read outwards from the residue. No end group written: not given here. *: point of attachment. DOTA = O=C(O)CN1CCN(CC(=O)O)CCN(CC(=O)*)CCN(CC(=O)O)CC1; mXylylene = c1cc(C[*:1])cc(C[*:2])c1; NMeY = CN[C@@H](Cc1ccc(O)cc1)C(=O)O; tBuAla = CC(C)(C)C[C@H](N)C(=O)O; Pen = CC(C)(S)[C@H](N)C(=O)O; 4Amb = NCc1ccc(C(=O)O)cc1; Ac6c = NC1(C(=O)O)CCCCC1; 4Amc = not defined here; APAc = not defined here; Apr = not defined here; AEEA = NCCOCCOCC(=O)O

B1: 3BP-3571 (peptide)
peptide: Ac-VSCE[dP]DWLTWSC-NH2
modifications: linker 3-12 via mXylylene
SMILES: CC(=O)N[C@H](C(=O)N[C@@H](CO)C(=O)N[C@H]1CSCc2cccc(c2)CSC[C@@H](C(N)=O)NC(=O)[C@H](CO)NC(=O)[C@H](Cc2c[nH]c3ccccc23)NC(=O)[C@H]([C@@H](C)O)NC(=O)[C@H](CC(C)C)NC(=O)[C@H](Cc2c[nH]c3ccccc23)NC(=O)[C@H](CC(=O)O)NC(=O)[C@H]2CCCN2C(=O)[C@H](CCC(=O)O)NC1=O)C(C)C
notes: also called Ac-Val-Ser-[Cys(3MeBn)-Glu-pro-Asp-Trp-Leu-Thr-Trp-Ser-Cys]-NH2
B2: 3BP-3583 (peptide)
peptide: {DOTA-APAc}-VYCE[dP]DWLTWSC-NH2
modifications: linker 3-12 via mXylylene; reading uncertain
notes: also called DOTA-APAc-Val-Tyr-[Cys(3MeBn)-Glu-pro-Asp-Trp-Leu-Thr-Trp-Ser-Cys]-NH2
B3: 3BP-3588 (peptide)
peptide: Ac-VRCE[dP]DWLTWSC-NH2
modifications: linker 3-12 via mXylylene
SMILES: CC(=O)N[C@H](C(=O)N[C@@H](CCCNC(=N)N)C(=O)N[C@H]1CSCc2cccc(c2)CSC[C@@H](C(N)=O)NC(=O)[C@H](CO)NC(=O)[C@H](Cc2c[nH]c3ccccc23)NC(=O)[C@H]([C@@H](C)O)NC(=O)[C@H](CC(C)C)NC(=O)[C@H](Cc2c[nH]c3ccccc23)NC(=O)[C@H](CC(=O)O)NC(=O)[C@H]2CCCN2C(=O)[C@H](CCC(=O)O)NC1=O)C(C)C
notes: also called Ac-Val-Arg-[Cys(3MeBn)-Glu-pro-Asp-Trp-Leu-Thr-Trp-Ser-Cys]-NH2
B4: 3BP-3589 (peptide)
peptide: Ac-V[NMeY]CE[dP]DWLTWSC-NH2
modifications: linker 3-12 via mXylylene
SMILES: CC(=O)N[C@H](C(=O)N(C)[C@@H](Cc1ccc(O)cc1)C(=O)N[C@H]1CSCc2cccc(c2)CSC[C@@H](C(N)=O)NC(=O)[C@H](CO)NC(=O)[C@H](Cc2c[nH]c3ccccc23)NC(=O)[C@H]([C@@H](C)O)NC(=O)[C@H](CC(C)C)NC(=O)[C@H](Cc2c[nH]c3ccccc23)NC(=O)[C@H](CC(=O)O)NC(=O)[C@H]2CCCN2C(=O)[C@H](CCC(=O)O)NC1=O)C(C)C
notes: also called Ac-Val-Nmy-[Cys(3MeBn)-Glu-pro-Asp-Trp-Leu-Thr-Trp-Ser-Cys]-NH2
B5: 3BP-3595 (peptide)
peptide: {DOTA-APAc}-VYCE[dP]SWLTWSC-NH2
modifications: linker 3-12 via mXylylene; reading uncertain
notes: also called DOTA-APAc-Val-Tyr-[Cys(3MeBn)-Glu-pro-Ser-Trp-Leu-Thr-Trp-Ser-Cys]-NH2
B6: 3BP-3596 (peptide)
peptide: {DOTA-APAc}-VYCE[dP]DFLTWSC-NH2
modifications: linker 3-12 via mXylylene; reading uncertain
notes: also called DOTA-APAc-Val-Tyr-[Cys(3MeBn)-Glu-pro-Asp-Phe-Leu-Thr-Trp-Ser-Cys]-NH2
B7: 3BP-3597 (peptide)
peptide: {DOTA-APAc}-VYCE[dP]DWLHWSC-NH2
modifications: linker 3-12 via mXylylene; reading uncertain
notes: also called DOTA-APAc-Val-Tyr-[Cys(3MeBn)-Glu-pro-Asp-Trp-Leu-His-Trp-Ser-Cys]-NH2
B8: 3BP-3599 (peptide)
peptide: {DOTA-APAc}-VYCE[dP]DWLTWRC-NH2
modifications: linker 3-12 via mXylylene; reading uncertain
notes: also called DOTA-APAc-Val-Tyr-[Cys(3MeBn)-Glu-pro-Asp-Trp-Leu-Thr-Trp-Arg-Cys]-NH2
B9: 3BP-3732 (peptide)
peptide: Ac-SYCE[dP]DWLTWE([Apr-AEEA-DOTA])C-NH2
modifications: linker 3-12 via 3MeBn; reading uncertain
notes: also called Ac-Ser-Tyr-[Cys(3MeBn)-Glu-pro-Asp-Trp-Leu-Thr-Trp-Glu(NH-Apr-O2Oc-DOTA′)-Cys]-NH2
B10: 3BP-3733 (peptide)
peptide: Ac-VFCE[dP]DWLTWE([Apr-AEEA-DOTA])C-NH2
modifications: linker 3-12 via 3MeBn; reading uncertain
notes: also called Ac-Val-Phe-[Cys(3MeBn)-Glu-pro-Asp-Trp-Leu-Thr-Trp-Glu(NH-Apr-O2Oc-DOTA′)-Cys]-NH2
B11: 3BP-3734 (peptide)
peptide: Ac-VRCE[dP]DWLTWE([Apr-AEEA-DOTA])C-NH2
modifications: linker 3-12 via 3MeBn; reading uncertain
notes: also called Ac-Val-Arg-[Cys(3MeBn)-Glu-pro-Asp-Trp-Leu-Thr-Trp-Glu(NH-Apr-O2Oc-DOTA′)-Cys]-NH2
B12: 3BP-3735 (peptide)
peptide: Ac-SRCE[dP]DWLTWE([Apr-AEEA-DOTA])C-NH2
modifications: linker 3-12 via 3MeBn; reading uncertain
notes: also called Ac-Ser-Arg-[Cys(3MeBn)-Glu-pro-Asp-Trp-Leu-Thr-Trp-Glu(NH-Apr-O2Oc-DOTA′)-Cys]-NH2
B13: 3BP-3784 (peptide)
peptide: VYCE[dP]DWLTWSC-NH2
modifications: linker 3-12 via 3MeBn; not fully specified (N-terminus); also: europium complexed by DOTA
notes: also called EuDOTA-APAc-Val-Tyr-[Cys(3MeBn)-Glu-pro-Asp-Trp-Leu-Thr-Trp-Ser-Cys]-NH2
B14: 3BP-3843 (peptide)
peptide: Ac-VYCE[dP]DWLTWEC-NH2
modifications: linker 3-12 via mXylylene; not fully specified (residue 11); also: indium complexed by DOTA
notes: also called Ac-Val-Tyr-[Cys(3MeBn)-Glu-pro-Asp-Trp-Leu-Thr-Trp-Glu(NH-Apr-O2Oc-InDOTA′)-Cys]-NH2
B15: 3BP-3844 (peptide)
peptide: Ac-VFCE[dP]DWLTWEC-NH2
modifications: linker 3-12 via mXylylene; not fully specified (residue 11); also: indium complexed by DOTA
notes: also called Ac-Val-Phe-[Cys(3MeBn)-Glu-pro-Asp-Trp-Leu-Thr-Trp-Glu(NH-Apr-O2Oc-InDOTA′)-Cys]-NH2
B16: 3BP-3845 (peptide)
peptide: Ac-VRCE[dP]DWLTWEC-NH2
modifications: linker 3-12 via mXylylene; not fully specified (residue 11); also: indium complexed by DOTA
notes: also called Ac-Val-Arg-[Cys(3MeBn)-Glu-pro-Asp-Trp-Leu-Thr-Trp-Glu(NH-Apr-O2Oc-InDOTA′)-Cys]-NH2
B17: 3BP-3873 (peptide)
peptide: Ac-SYCE[dP]DWLTWE([Apr-DOTA])C-NH2
modifications: linker 3-12 via mXylylene; reading uncertain
notes: also called Ac-Ser-Tyr-[Cys(3MeBn)-Glu-pro-Asp-Trp-Leu-Thr-Trp-Glu(NH-Apr-DOTA′)-Cys]-NH2
B18: 3BP-3491 (peptide)
peptide: Ac-VYCE[dP]DW[tBuAla]TWSC-NH2
modifications: linker 3-12 via mXylylene
SMILES: CC(=O)N[C@H](C(=O)N[C@@H](Cc1ccc(O)cc1)C(=O)N[C@H]1CSCc2cccc(c2)CSC[C@@H](C(N)=O)NC(=O)[C@H](CO)NC(=O)[C@H](Cc2c[nH]c3ccccc23)NC(=O)[C@H]([C@@H](C)O)NC(=O)[C@H](CC(C)(C)C)NC(=O)[C@H](Cc2c[nH]c3ccccc23)NC(=O)[C@H](CC(=O)O)NC(=O)[C@H]2CCCN2C(=O)[C@H](CCC(=O)O)NC1=O)C(C)C
notes: also called Ac-Val-Tyr-[Cys(3MeBn)-Glu-pro-Asp-Trp-Npg-Thr-Trp-Ser-Cys]-NH2
B19: 3BP-3431 (peptide)
peptide: {DOTA-4Amc}-VYCE[dP]DW[tBuAla]TWAC-NH2
modifications: linker 3-12 via mXylylene; reading uncertain
notes: also called DOTA-4Amc-Val-Tyr-[Cys(3MeBn)-Glu-pro-Asp-Trp-Npg-Thr-Trp-Ala-Cys]-NH2
B20: 3BP-3490 (peptide)
peptide: Ac-VYCE[dP]DW[tBuAla]TWAC-NH2
modifications: linker 3-12 via mXylylene
SMILES: CC(=O)N[C@H](C(=O)N[C@@H](Cc1ccc(O)cc1)C(=O)N[C@H]1CSCc2cccc(c2)CSC[C@@H](C(N)=O)NC(=O)[C@H](C)NC(=O)[C@H](Cc2c[nH]c3ccccc23)NC(=O)[C@H]([C@@H](C)O)NC(=O)[C@H](CC(C)(C)C)NC(=O)[C@H](Cc2c[nH]c3ccccc23)NC(=O)[C@H](CC(=O)O)NC(=O)[C@H]2CCCN2C(=O)[C@H](CCC(=O)O)NC1=O)C(C)C
notes: also called Ac-Val-Tyr-[Cys(3MeBn)-Glu-pro-Asp-Trp-Npg-Thr-Trp-Ala-Cys]-NH2
B21: 3BP-3503 (peptide)
peptide: Ac-VYCE[dP]DW[Ac6c]TWAC-NH2
modifications: linker 3-12 via mXylylene
SMILES: CC(=O)N[C@H](C(=O)N[C@@H](Cc1ccc(O)cc1)C(=O)N[C@H]1CSCc2cccc(c2)CSC[C@@H](C(N)=O)NC(=O)[C@H](C)NC(=O)[C@H](Cc2c[nH]c3ccccc23)NC(=O)[C@H]([C@@H](C)O)NC(=O)C2(CCCCC2)NC(=O)[C@H](Cc2c[nH]c3ccccc23)NC(=O)[C@H](CC(=O)O)NC(=O)[C@H]2CCCN2C(=O)[C@H](CCC(=O)O)NC1=O)C(C)C
notes: also called Ac-Val-Tyr-[Cys(3MeBn)-Glu-pro-Asp-Trp-Egz-Thr-Trp-Ala-Cys]-NH2
B22: 3BP-3474 (peptide)
peptide: Ac-VYCE[dP]DWLTWAC[AEEA]K(DOTA)-NH2
modifications: linker 3-12 via mXylylene
SMILES: CC(=O)N[C@H](C(=O)N[C@@H](Cc1ccc(O)cc1)C(=O)N[C@H]1CSCc2cccc(c2)CSC[C@@H](C(=O)NCCOCCOCC(=O)N[C@@H](CCCCNC(=O)CN2CCN(CC(=O)O)CCN(CC(=O)O)CCN(CC(=O)O)CC2)C(N)=O)NC(=O)[C@H](C)NC(=O)[C@H](Cc2c[nH]c3ccccc23)NC(=O)[C@H]([C@@H](C)O)NC(=O)[C@H](CC(C)C)NC(=O)[C@H](Cc2c[nH]c3ccccc23)NC(=O)[C@H](CC(=O)O)NC(=O)[C@H]2CCCN2C(=O)[C@H](CCC(=O)O)NC1=O)C(C)C
notes: also called Ac-Val-Tyr-[Cys(3MeBn)-Glu-pro-Asp-Trp-Leu-Thr-Trp-Ala-Cys]-O2Oc-Lys(DOTA)-NH2
B23: 3BP-3477 (peptide)
peptide: Ac-VYCE[dP]DWLTWAC[4Amb]K(DOTA)-NH2
modifications: linker 3-12 via mXylylene
SMILES: CC(=O)N[C@H](C(=O)N[C@@H](Cc1ccc(O)cc1)C(=O)N[C@H]1CSCc2cccc(c2)CSC[C@@H](C(=O)NCc2ccc(C(=O)N[C@@H](CCCCNC(=O)CN3CCN(CC(=O)O)CCN(CC(=O)O)CCN(CC(=O)O)CC3)C(N)=O)cc2)NC(=O)[C@H](C)NC(=O)[C@H](Cc2c[nH]c3ccccc23)NC(=O)[C@H]([C@@H](C)O)NC(=O)[C@H](CC(C)C)NC(=O)[C@H](Cc2c[nH]c3ccccc23)NC(=O)[C@H](CC(=O)O)NC(=O)[C@H]2CCCN2C(=O)[C@H](CCC(=O)O)NC1=O)C(C)C
notes: also called Ac-Val-Tyr-[Cys(3MeBn)-Glu-pro-Asp-Trp-Leu-Thr-Trp-Ala-Cys]-Pamb-Lys(DOTA)-NH2
B24: 3BP-3492 (peptide)
peptide: Ac-VYCE[dP]DWLTWA[Pen]-NH2
modifications: linker 3-12 via mXylylene
SMILES: CC(=O)N[C@H](C(=O)N[C@@H](Cc1ccc(O)cc1)C(=O)N[C@H]1CSCc2cccc(c2)CSC(C)(C)[C@@H](C(N)=O)NC(=O)[C@H](C)NC(=O)[C@H](Cc2c[nH]c3ccccc23)NC(=O)[C@H]([C@@H](C)O)NC(=O)[C@H](CC(C)C)NC(=O)[C@H](Cc2c[nH]c3ccccc23)NC(=O)[C@H](CC(=O)O)NC(=O)[C@H]2CCCN2C(=O)[C@H](CCC(=O)O)NC1=O)C(C)C
notes: also called Ac-Val-Tyr-[Cys(3MeBn)-Glu-pro-Asp-Trp-Leu-Thr-Trp-Ala-Pen]-NH2

Target: human carbonic anhydrase 9 (CAIX) (human, UniProt Q16790 38-459)
Assay: FACS competition on HT-29 cells against tracer 3BP-2776; pIC50 category A = pIC50 >8.0
Description: CAIX-expressing human HT-29 colorectal cancer cells (DSMZ, RRID: CVCL_0320) were cultured in McCoys's 5A modified medium (Biochrom, #F1015) including 10% fetal calf serum (FCS), 2 mM L-glutamine, 100 U/ml penicillin and 100 μg/mL streptomycin. Cells were detached with Accutase (Biolegend, #423201) and washed in FACS buffer (PBS including 1% FCS). Cells were diluted in FACS buffer to a final concentration of 500.000 cells per ml. 200 μL of the cell suspension were transferred to a u-shaped non-binding 96-well plate (Greiner) and cells were washed in ice-cold FACS buffer.
When biotinylated compounds were used an additional incubation step with 1 μg/mL APC-Streptavidin (Miltenyi; #130-106-791) in 50 μL FACS buffer for 30 minutes on ice was performed.
Cells were washed twice with ice-cold FACS buffer and analyzed in an Attune NxT flow cytometer (Thermo Fisher). Median fluorescence intensities (MFI) of the APC/Cy5-channel were calculated by Attune NxT software.

pIC50, > 8 pic50:
B1
B2
B3
B4
B5
B6
B7
B8
B9
B10
B11
B12
B13
B14
B15
B16
B17
B18
B19
B20
B21
B22
B23
B24
